Results reported in paper PMC10512822.

Target: translocated ALK of ALK-translocated NSCLC tumors (n = 6) (human (endogenous in NSCLC tumors))
Test: proximity ligation; Duolink PLA with mouse HER3 and rabbit ALK antibodies on FFPE sections of ALK-translocated NSCLC tumors (n = 6)

Substance: human epidermal growth factor receptor 3 (from UniProt P21860 20-1342)
- mean signal for PLA per cell (signals per cell): 17.2
